Test results from publication PMC6239434, “Angiopoietin-4-dependent venous maturation and fluid drainage in the peripheral retina” (eLife, 2018).

How the values were obtained:
TIE2 (Homo sapiens) = TIE2 (Homo sapiens) (UniProt Q02763); details: cited from earlier work
[1] = biological target: the molecule itself; assay: non-reducing SDS polyacrylamide gel electrophoresis; purified recombinant angiopoietins run under non-reducing and reducing (1% 2-mercaptoethanol) conditions; oligomerization and multimerization states

TIE2 (Homo sapiens), sequence (Q02763 23-748): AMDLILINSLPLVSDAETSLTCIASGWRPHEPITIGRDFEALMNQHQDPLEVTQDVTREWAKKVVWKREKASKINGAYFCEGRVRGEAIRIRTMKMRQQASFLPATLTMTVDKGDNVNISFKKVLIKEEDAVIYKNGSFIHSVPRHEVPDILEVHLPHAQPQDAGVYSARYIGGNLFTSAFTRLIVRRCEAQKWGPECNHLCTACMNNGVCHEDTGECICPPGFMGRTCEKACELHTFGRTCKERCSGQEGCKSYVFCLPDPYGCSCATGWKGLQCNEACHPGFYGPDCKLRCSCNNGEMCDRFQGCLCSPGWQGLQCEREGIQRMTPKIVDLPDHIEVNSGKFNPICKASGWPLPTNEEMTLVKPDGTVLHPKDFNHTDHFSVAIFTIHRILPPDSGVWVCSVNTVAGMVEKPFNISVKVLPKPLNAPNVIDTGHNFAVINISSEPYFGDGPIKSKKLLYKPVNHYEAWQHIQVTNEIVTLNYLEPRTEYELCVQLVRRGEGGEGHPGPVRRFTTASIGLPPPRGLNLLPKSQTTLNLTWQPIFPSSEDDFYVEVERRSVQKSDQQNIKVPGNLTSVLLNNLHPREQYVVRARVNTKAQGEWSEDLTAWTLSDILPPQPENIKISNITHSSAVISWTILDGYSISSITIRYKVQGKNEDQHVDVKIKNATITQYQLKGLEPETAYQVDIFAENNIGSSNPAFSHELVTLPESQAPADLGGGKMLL

Molecule	binding result [1]	further results
Angiopoietin-1 (from UniProt Q15389)		Kd (TIE2 (Homo sapiens)): 3.7 nM
Purified recombinant human ANGPT2 (ligand, UniProt O15123 19-496, looked up, human angiopoietin-2 (ANGPT2), purified recombinant protein from R & D Systems; Runs predominantly as disulfide-linked dimers on non-reducing SDS-PAGE; also called angiopoietin-2; source: bought: R & D Systems (purified recombinant)) YNNFRKSMDSIGKKQYQVQHGSCSYTFLLPEMDNCRSSSSPYVSNAVQRDAPLEYDDSVQRLQVLENIMENNTQWLMKLENYIQDNMKKEMVEIQQNAVQNQTAVMIEIGTNLLNQTAEQTRKLTDVEAQVLNQTTRLELQLLEHSLSTNKLEKQILDQTSEINKLQDKNSFLEKKVLAMEDKHIIQLQSIKEEKDQLQVLVSKQNSIIEELEKKIVTATVNNSVLQKQQHDLMETVNNLLTMMSTSNSAKDPTVAKEEQISFRDCAEVFKSGHTTNGIYTLTFPNSTEEIKAYCDMEAGGGGWTIIQRREDGSVDFQRTWKEYKVGFGNPSGEYWLGNEFVSQLTNQQRYVLKIHLKDWEGNEAYSLYEHFYLSSEELNYRIHLKGLTGTAGKISSISQPGNDFSTKDGDNDKCICKCSQMLTGGWWFDACGPSNLNGMYYPQRQNTNKFNGIKWYYWKGSGYSLKATTMMIRPADF		stoichiometry N [1]: 2
Purified recombinant mouse Angpt4 (ligand, UniProt Q9WVH6 22-509, looked up, mouse angiopoietin-4 (Angpt4, previously named Ang3), purified recombinant protein from R & D Systems; also called angiopoietin-4; Ang3; source: bought: R & D Systems (purified recombinant)) QHRGPEAGGHRQIHQVRRGQCSYTFVVPEPDICQLAPTAAPEALGGSNSLQRDLPASRLHLTDWRAQRAQRAQRVSQLEKILENNTQWLLKLEQSIKVNLRSHLVQAQQDTIQNQTTTMLALGANLMNQTKAQTHKLTAVEAQVLNQTLHMKTQMLENSLSTNKLERQMLMQSRELQRLQGRNRALETRLQALEAQHQAQLNSLQEKREQLHSLLGHQTGTLANLKHNLHALSSNSSSLQQQQQQLTEFVQRLVRIVAQDQHPVSLKTPKPVFQDCAEIKRSGVNTSGVYTIYETNMTKPLKVFCDMETDGGGWTLIQHREDGSVNFQRTWEEYKEGFGNVAREHWLGNEAVHRLTSRTAYLLRVELHDWEGRQTSIQYENFQLGSERQRYSLSVNDSSSSAGRKNSLAPQGTKFSTKDMDNDNCMCKCAQMLSGGWWFDACGLSNLNGIYYSVHQHLHKINGIRWHYFRGPSYSLHGTRMMLRPMGA	binds	
Purified recombinant human ANGPT4 (ligand, UniProt Q9Y264 25-503, looked up, human angiopoietin-4 (ANGPT4), purified recombinant protein from R & D Systems; Forms dimeric and higher oligomeric/multimeric complexes on non-reducing SDS-PAGE; also called angiopoietin-4; source: bought: R & D Systems (purified recombinant)) TRQEADRGCETLVVQHGHCSYTFLLPKSEPCPPGPEVSRDSNTLQRESLANPLHLGKLPTQQVKQLEQALQNNTQWLKKLERAIKTILRSKLEQVQQQMAQNQTAPMLELGTSLLNQTTAQIRKLTDMEAQLLNQTSRMDAQMPETFLSTNKLENQLLLQRQKLQQLQGQNSALEKRLQALETKQQEELASILSKKAKLLNTLSRQSAALTNIERGLRGVRHNSSLLQDQQHSLRQLLVLLRHLVQERANASAPAFIMAGEQVFQDCAEIQRSGASASGVYTIQVSNATKPRKVFCDLQSSGGRWTLIQRRENGTVNFQRNWKDYKQGFGDPAGEHWLGNEVVHQLTRRAAYSLRVELQDWEGHEAYAQYEHFHLGSENQLYRLSVVGYSGSAGRQSSLVLQNTSFSTLDSDNDHCLCKCAQVMSGGWWFDACGLSNLNGVYYHAPDNKYKMDGIRWHYFKGPSYSLRASRMMIRPLDI	binds	
Purified recombinant human ANGPT1 (ligand, UniProt Q15389 16-498, looked up, human angiopoietin-1 (ANGPT1), purified recombinant protein from R & D Systems; Forms various-sized oligomers/multimers on non-reducing SDS-PAGE; also called angiopoietin-1; source: bought: R & D Systems (purified recombinant)) HIGCSNQRRSPENSGRRYNRIQHGQCAYTFILPEHDGNCRESTTDQYNTNALQRDAPHVEPDFSSQKLQHLEHVMENYTQWLQKLENYIVENMKSEMAQIQQNAVQNHTATMLEIGTSLLSQTAEQTRKLTDVETQVLNQTSRLEIQLLENSLSTYKLEKQLLQQTNEILKIHEKNSLLEHKILEMEGKHKEELDTLKEEKENLQGLVTRQTYIIQELEKQLNRATTNNSVLQKQQLELMDTVHNLVNLCTKEGVLLKGGKREEEKPFRDCADVYQAGFNKSGIYTIYINNMPEPKKVFCNMDVNGGGWTVIQHREDGSLDFQRGWKEYKMGFGNPSGEYWLGNEFIFAITSQRQYMLRIELMDWEGNRAYSQYDRFHIGNEKQNYRLYLKGHTGTAGKQSSLILHGADFSTKDADNDNCMCKCALMLTGGWWFDACGPSNLNGMFYTAGQNHGKLNGIKWHYFKGPSYSLRSTTMMIRPLDF	binds	
